From patent US20220041999A1 (NEOGENE THERAPEUTICS B V, published 2022)
Numbering of substitutions follows the chain as printed. Values belong to the molecule of their own block, whether it stands above or below them.

Experiments:
[1] = target: T1, FOS^MUT3AA-mDHFR_B; assay: cell-based or functional assay
T1 chain: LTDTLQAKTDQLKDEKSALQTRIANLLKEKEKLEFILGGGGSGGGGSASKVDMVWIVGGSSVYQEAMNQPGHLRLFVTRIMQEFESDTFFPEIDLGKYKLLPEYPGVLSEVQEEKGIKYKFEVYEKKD

[2] = target: T2, sFOS^MUT8AA-mDHFR_B; assay: cell-based or functional assay
T2 chain: T1 chain with T2R, E15N, K16Q, E29K, K30Q

[3] = target: T3, FOS^MUT4AA-mDHFR_B; assay: cell-based or functional assay
T3 chain: T1 chain with E29K

[4] = target: T4, sFOS-mDHFR_B (murine); assay: cell-based or functional assay
T4 chain: T1 chain with K8E, K13E, R22E

[5] = target: T5, FOS-mDHFRmt_B; assay: cell-based or functional assay
T5 chain: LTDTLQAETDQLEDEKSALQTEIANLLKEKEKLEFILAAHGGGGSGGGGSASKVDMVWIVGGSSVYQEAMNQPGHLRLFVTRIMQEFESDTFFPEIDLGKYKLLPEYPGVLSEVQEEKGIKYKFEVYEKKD

[6] = target: T6, FOS^WT-mDHFR_B; assay: cell-based or functional assay
T6 chain: T5 chain

[7] = target: T3, FOS^MUT4AA-mDHFR_B; assay: split-DHFR complementation, 100 nM MTX 10 days, FACS
Description: (§1) FIGS. 44A-44D show the results of MTX selection of double engineered BC76 T cells. Activated human primary T cells isolated from a buffy coat, BC76, were double-infected with retroviral vectors encoding an MTX-resistant murine DHFR^FS mutant (mDHFR) split into an N-terminal and C-terminal protein half (vector A and B), fused to heterodimerizing JUN-FOS leucine zippers. JUN^WT depicts a wildtype JUN leucine zipper, FOS^WT depicts a wildtype FOS leucine zipper, JUN^MUT3AA depicts a mutant JUN leucine zipper containing three acidic amino acids from FOS, FOS^MUT3AA depicts a mutant FOS leucine zipper containing three basic amino acids from JUN, JUN^MUT4AA depicts a mutant JUN leucine zipper containing four acidic amino acids from FOS, FOS^MUT4AA depicts a mutant FOS leucine zipper containing four basic amino acids from JUN. Vector A and B also encoded a Ly6G and CD90.2 transduction marker, respectively. Starting at 4 days post transduction, cells were either left untreated (row 1), or were treated with 100 nM MTX for 10 days (row 2), after which enrichment of double transduced cells was measured by FACS analysis.

[8] = target: T6, FOS^WT-mDHFR_B; assay: as above
Description: as §1

[9] = target: T7, FOS-mDHFRmt_B-2A; assay: cell-based or functional assay
T7 chain: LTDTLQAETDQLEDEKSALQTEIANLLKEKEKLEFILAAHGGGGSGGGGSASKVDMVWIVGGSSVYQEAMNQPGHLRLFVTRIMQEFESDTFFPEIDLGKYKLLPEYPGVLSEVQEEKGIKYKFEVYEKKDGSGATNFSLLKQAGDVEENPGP

B1: JUN-mDHFRmt_A (other)
chain: RIARLEEKVKTLKAQNSELASTANMLREQVAQLKQKVMNHGGGGSGGGGSMVRPLNCIVAVSQNMGIGKNGDFPWPPLRNESKYFQRMTTTSSVEGKQNLVIMGRKTWFSIPEKNRPLKDRINIVLSRELKEPPRGAHFLAKSLDDALRLIEQPEL
fold enrichment of double transduced T cells (FACS), BC45, 50 nM MTX 4 days [5]: 4.4 fold
fold enrichment of double transduced T cells (FACS), BC45, further 100 nM MTX 3 days, row 2 [5]: 11.3 fold
fold enrichment of double transduced T cells (FACS), BC45, further 100 nM MTX 3 days, row 3 [5]: 94 fold
fold enrichment of double transduced T cells (FACS), BC46, 50 nM MTX 4 days [5]: 6.2 fold
fold enrichment of double transduced T cells (FACS), BC46, further 100 nM MTX 3 days, row 2 [5]: 4 fold
fold enrichment of double transduced T cells (FACS), BC46, further 100 nM MTX 3 days, row 3 [5]: 23.2 fold

B3: JUN^MUT3AA-mDHFR_A (other)
chain: RIARLEEEVKTLEAQNSELASTANMLEEQVAQLKQKVGGGGSGGGGSMVRPLNCIVAVSQNMGIGKNGDFPWPPLRNESKYFQRMTTTSSVEGKQNLVIMGRKTWFSIPEKNRPLKDRINIVLSRELKEPPRGAHFLAKSLDDALRLIEQPEL
fold enrichment of double transduced T cells (FACS), BC54, 100 nM MTX 2 days [1]: 5.6 fold
fold enrichment of double transduced T cells (FACS), BC76, 100 nM MTX 10 days [1]: 72 fold
fold enrichment of double transduced T cells (FACS), donor B, 100 nM MTX 4 days [1]: 10.5 fold
fold enrichment of double transduced T cells (FACS), shorter zippers, donor A, 100 nM MTX 6 days (FIG. 49) [1]: 49 fold
fold enrichment of double transduced T cells (FACS), shorter zippers, donor B, 100 nM MTX 6 days (FIG. 49) [1]: 6.6 fold
fold enrichment of double transduced T cells (FACS), BC54, 100 nM MTX 2 days [6]: 3.9 fold
fold enrichment of double transduced T cells (FACS), BC76, 100 nM MTX 10 days [6]: 19 fold
fold enrichment of double transduced T cells (FACS), donor B, 100 nM MTX 4 days [6]: 11.2 fold
fold enrichment of double transduced T cells (FACS), shorter zippers, donor A, 100 nM MTX 6 days (FIG. 49) [4]: 3.2 fold
fold enrichment of double transduced T cells (FACS), shorter zippers, donor B, 100 nM MTX 6 days (FIG. 49) [4]: 1.5 fold

B5: JUN^MUT4AA-mDHFR_A (other)
chain: B3 chain with K34E
fold enrichment of double knock-in T cells (FACS), BC78, 100 nM MTX 6 days [3]: 54 fold
fold enrichment of double transduced T cells (FACS), BC76, 100 nM MTX 10 days [3]: 70 fold
fold enrichment of double transduced T cells (FACS), shorter zippers, donor A, 100 nM MTX 6 days (FIG. 50) [3]: 39 fold
fold enrichment of double transduced T cells (FACS), shorter zippers, donor B, 100 nM MTX 6 days (FIG. 50) [3]: 4.7 fold
fold enrichment of double transduced T cells (FACS), BC76, 100 nM MTX 10 days [6]: 2.6 fold
fold enrichment of double transduced T cells (FACS), shorter zippers, donor A, 100 nM MTX 6 days (FIG. 50) [4]: 2.2 fold
fold enrichment of double transduced T cells (FACS), shorter zippers, donor B, 100 nM MTX 6 days (FIG. 50) [4]: 1.5 fold
binding result [8]: no binding

B6: JUN-mDHFRmt_A-2A (other)
chain: RIARLEEKVKTLKAQNSELASTANMLREQVAQLKQKVMNHGGGGSGGGGSMVRPLNCIVAVSQNMGIGKNGDFPWPPLRNESKYFQRMTTTSSVEGKQNLVIMGRKTWFSIPEKNRPLKDRINIVLSRELKEPPRGAHFLAKSLDDALRLIEQPELGSGATNFSLLKQAGDVEENPGP
fold enrichment of double transduced T cells (FACS), BC45, 25 nM MTX 4 days [9]: 5.3 fold
fold enrichment of double transduced T cells (FACS), BC45, 50 nM MTX 4 days [9]: 10.5 fold
fold enrichment of double transduced T cells (FACS), BC45, further 100 nM MTX 3 days, row 2 [9]: 15.5 fold
fold enrichment of double transduced T cells (FACS), BC45, further 100 nM MTX 3 days, row 3 [9]: 18.9 fold
fold enrichment of double transduced T cells (FACS), BC46, 25 nM MTX 4 days [9]: 3.6 fold
fold enrichment of double transduced T cells (FACS), BC46, 50 nM MTX 4 days [9]: 8.3 fold
fold enrichment of double transduced T cells (FACS), BC46, further 100 nM MTX 3 days, row 2 [9]: 10.4 fold
fold enrichment of double transduced T cells (FACS), BC46, further 100 nM MTX 3 days, row 3 [9]: 16.9 fold

Now from value to molecule:

fold enrichment of double transduced T cells (FACS), shorter zippers, donor A, 100 nM MTX 6 days (FIG. 49) [1]: 1.7 fold
fold enrichment of double transduced T cells (FACS), shorter zippers, donor B, 100 nM MTX 6 days (FIG. 49) [1]: 1.4 fold
fold enrichment of double transduced T cells (FACS), 100 nM MTX 6 days (FIGS. 51A-51B) [2]: 1.5 fold
fold enrichment of double transduced T cells (FACS), shorter zippers, donor A, 100 nM MTX 6 days (FIG. 50) [3]: 1.5 fold
fold enrichment of double transduced T cells (FACS), shorter zippers, donor B, 100 nM MTX 6 days (FIG. 50) [3]: 1.2 fold
fold enrichment of double transduced T cells (FACS), 100 nM MTX 6 days (FIGS. 51A-51B) [4]: 12.3 fold
fold enrichment of double transduced T cells (FACS), shorter zippers, donor A, 100 nM MTX 6 days (FIG. 49) [4]: 66 fold
fold enrichment of double transduced T cells (FACS), shorter zippers, donor B, 100 nM MTX 6 days (FIG. 49) [4]: 7.6 fold
Molecule: sJUN-mDHFR_A

fold enrichment of double transduced T cells (FACS), BC54, 100 nM MTX 2 days [1]: 1.9 fold
fold enrichment of double transduced T cells (FACS), BC76, 100 nM MTX 10 days [1]: 3.1 fold
fold enrichment of double transduced T cells (FACS), donor B, 100 nM MTX 4 days [1]: 4 fold
fold enrichment of double transduced T cells (FACS), BC76, 100 nM MTX 10 days [3]: 1.4 fold
fold enrichment of double transduced T cells (FACS), BC54, 100 nM MTX 2 days [6]: 6.8 fold
fold enrichment of double transduced T cells (FACS), BC76, 100 nM MTX 10 days [6]: 132 fold
fold enrichment of double transduced T cells (FACS), donor B, 100 nM MTX 4 days [6]: 15.5 fold
binding result [7]: no binding
B2: JUN^WT-mDHFR_A (other)
chain: B1 chain

fold enrichment of double transduced T cells (FACS), 100 nM MTX 6 days (FIGS. 51A-51B) [2]: 2.2 fold
fold enrichment of double transduced T cells (FACS), 100 nM MTX 6 days (FIGS. 51A-51B) [4]: 0.9 fold
B4: sJUN^MUT8AA-mDHFR_A (other)
chain: B3 chain with R1T, Q15K, N16E, Q29K, K34E
